Measurements published in article PMC12451834.

Target: RNA-binding protein EWS low-complexity domain (EWS^LCD, residues 1-264) (UniProt Q01844)
Experiment: condensate partitioning assay

## EWS^RRM-RGG2 (central RNA-binding region of EWS: RNA-recognition motif and RGG2 domain) (domain or fragment)
  percent (w/w) co-partitioned into condensates with EWS^LCD: 53 % w/w
